Laboratory results published in patent US20240109955A1.

What was measured:
Test in all cases: cell-based or functional assay
[1] = target: SARS-CoV-2 spike protein, C.1.2 variant (SARS-CoV-2)
[2] = target: SARS-CoV-2 spike protein, Alpha variant (B.1.1.7) (SARS-CoV-2)
[3] = target: SARS-CoV-2 spike protein, Delta variant (B.1.617.2) (SARS-CoV-2)
[4] = target: SARS-CoV-2 spike (S) protein, Omicron variant BA.1 (SARS-CoV-2) (UniProt P0DTC2)
[5] = target: SARS-CoV-2 spike (S) protein, Omicron variant BA.2 (SARS-CoV-2) (UniProt P0DTC2)
[6] = target: SARS-CoV-2 spike protein, Gamma variant (P.1) (SARS-CoV-2)
[7] = target: SARS-CoV-2 spike (S) protein, Omicron variant BA.2.12.1 (SARS-CoV-2) (UniProt P0DTC2)
[8] = target: SARS-CoV-2 spike protein, Beta variant 1 (B.1.351 v1) (SARS-CoV-2)
[9] = target: SARS-CoV-2 spike protein, Mu variant (B.1.621) (SARS-CoV-2)

Sequence of MX468 (A19-61 × A23-58H/B1-182L CL-CH1) (bispecific antibody) (chain): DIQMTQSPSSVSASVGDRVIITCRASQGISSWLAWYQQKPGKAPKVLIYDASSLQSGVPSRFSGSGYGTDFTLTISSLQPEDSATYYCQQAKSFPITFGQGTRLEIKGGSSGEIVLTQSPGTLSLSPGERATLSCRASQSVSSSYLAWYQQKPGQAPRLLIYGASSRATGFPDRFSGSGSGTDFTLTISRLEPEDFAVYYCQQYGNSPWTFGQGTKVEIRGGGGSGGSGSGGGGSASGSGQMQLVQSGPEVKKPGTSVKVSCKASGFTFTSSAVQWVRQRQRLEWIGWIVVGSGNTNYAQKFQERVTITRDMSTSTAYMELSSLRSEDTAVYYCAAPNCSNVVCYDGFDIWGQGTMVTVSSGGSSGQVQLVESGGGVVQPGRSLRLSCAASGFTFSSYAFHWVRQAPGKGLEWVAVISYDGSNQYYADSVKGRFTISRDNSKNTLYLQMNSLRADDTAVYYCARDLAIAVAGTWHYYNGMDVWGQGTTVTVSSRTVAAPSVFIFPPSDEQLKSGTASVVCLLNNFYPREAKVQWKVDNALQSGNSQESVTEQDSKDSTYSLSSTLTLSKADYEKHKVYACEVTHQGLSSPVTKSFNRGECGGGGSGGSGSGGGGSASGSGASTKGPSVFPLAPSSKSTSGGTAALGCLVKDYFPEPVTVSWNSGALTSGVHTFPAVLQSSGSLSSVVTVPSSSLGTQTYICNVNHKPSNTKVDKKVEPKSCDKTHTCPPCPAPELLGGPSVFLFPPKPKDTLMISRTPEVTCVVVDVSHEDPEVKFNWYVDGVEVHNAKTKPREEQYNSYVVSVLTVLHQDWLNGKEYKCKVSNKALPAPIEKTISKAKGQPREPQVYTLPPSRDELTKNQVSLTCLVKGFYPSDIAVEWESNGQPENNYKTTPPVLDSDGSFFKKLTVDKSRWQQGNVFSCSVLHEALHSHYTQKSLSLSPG
Sequence of MX493 (A19-46 × A23-58H/B1-182L CL-CH1) (bispecific antibody) (chain): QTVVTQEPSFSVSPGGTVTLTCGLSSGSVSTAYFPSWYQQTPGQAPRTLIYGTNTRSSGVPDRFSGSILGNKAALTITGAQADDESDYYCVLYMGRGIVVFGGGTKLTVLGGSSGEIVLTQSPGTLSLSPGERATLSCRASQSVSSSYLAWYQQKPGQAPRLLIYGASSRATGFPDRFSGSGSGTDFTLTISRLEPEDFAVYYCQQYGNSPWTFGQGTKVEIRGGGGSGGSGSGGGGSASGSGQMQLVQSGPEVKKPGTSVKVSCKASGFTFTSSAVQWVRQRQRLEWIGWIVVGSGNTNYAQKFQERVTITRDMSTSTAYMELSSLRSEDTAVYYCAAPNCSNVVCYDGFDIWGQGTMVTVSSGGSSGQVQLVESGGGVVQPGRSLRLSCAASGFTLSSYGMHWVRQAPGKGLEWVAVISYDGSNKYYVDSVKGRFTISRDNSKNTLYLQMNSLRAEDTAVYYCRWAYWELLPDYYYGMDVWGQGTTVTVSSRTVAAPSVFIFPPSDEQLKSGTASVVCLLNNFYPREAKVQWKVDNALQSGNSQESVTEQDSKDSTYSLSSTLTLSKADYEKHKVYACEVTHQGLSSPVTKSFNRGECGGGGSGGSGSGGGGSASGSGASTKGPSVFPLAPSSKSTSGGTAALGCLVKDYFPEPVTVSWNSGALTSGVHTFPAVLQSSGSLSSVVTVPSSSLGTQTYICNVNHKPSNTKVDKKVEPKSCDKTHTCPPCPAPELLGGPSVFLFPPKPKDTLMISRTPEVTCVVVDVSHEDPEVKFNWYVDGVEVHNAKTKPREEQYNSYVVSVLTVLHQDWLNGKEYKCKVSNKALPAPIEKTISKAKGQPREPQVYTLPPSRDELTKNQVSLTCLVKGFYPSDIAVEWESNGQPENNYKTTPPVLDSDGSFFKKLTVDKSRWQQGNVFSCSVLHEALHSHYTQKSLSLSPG
Sequence of MX180 (B1-182 × A19-46) (bispecific antibody) (chain): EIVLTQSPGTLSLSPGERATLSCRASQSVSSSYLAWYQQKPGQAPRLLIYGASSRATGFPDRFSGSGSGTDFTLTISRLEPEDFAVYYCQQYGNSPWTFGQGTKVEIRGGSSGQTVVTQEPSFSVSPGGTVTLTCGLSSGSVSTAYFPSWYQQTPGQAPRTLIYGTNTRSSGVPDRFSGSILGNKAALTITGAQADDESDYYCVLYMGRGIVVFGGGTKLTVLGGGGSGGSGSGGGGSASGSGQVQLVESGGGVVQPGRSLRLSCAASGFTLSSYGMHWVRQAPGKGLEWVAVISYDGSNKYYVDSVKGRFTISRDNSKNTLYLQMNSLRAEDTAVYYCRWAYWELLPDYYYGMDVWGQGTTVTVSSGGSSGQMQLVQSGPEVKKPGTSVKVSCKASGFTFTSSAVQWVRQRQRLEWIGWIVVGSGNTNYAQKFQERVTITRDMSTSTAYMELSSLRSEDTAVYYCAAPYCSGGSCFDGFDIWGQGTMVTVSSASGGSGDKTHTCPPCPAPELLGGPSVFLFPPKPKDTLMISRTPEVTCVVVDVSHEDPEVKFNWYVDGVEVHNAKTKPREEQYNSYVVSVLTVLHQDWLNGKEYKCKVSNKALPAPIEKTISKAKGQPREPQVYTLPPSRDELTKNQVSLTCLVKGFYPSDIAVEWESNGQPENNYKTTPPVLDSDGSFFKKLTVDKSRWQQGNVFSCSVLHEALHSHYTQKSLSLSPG
Sequence of MX492 (A19-46 × A23-58H/B1-182L) (bispecific antibody) (chain): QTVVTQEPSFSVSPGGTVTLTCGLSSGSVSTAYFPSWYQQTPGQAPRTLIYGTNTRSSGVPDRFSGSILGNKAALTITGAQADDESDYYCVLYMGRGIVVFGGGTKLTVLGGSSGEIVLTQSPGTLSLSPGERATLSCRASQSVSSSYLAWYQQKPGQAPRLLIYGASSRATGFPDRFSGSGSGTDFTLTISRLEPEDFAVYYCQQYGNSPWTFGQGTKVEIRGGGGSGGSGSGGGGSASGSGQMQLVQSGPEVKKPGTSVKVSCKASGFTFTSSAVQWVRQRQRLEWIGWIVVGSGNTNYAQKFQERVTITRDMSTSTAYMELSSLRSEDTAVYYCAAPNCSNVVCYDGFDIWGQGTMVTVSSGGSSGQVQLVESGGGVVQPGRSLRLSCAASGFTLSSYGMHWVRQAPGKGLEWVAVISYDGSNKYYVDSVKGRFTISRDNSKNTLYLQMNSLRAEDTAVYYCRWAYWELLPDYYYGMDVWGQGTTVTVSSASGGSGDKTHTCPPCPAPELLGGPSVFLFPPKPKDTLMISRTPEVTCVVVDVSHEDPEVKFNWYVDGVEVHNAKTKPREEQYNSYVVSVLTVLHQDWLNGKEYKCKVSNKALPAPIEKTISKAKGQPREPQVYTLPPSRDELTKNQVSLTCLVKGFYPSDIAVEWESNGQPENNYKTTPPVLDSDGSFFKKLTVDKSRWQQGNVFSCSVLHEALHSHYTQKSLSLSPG
Sequence of MX179 (A19-46 × B1-182) (bispecific antibody) (chain): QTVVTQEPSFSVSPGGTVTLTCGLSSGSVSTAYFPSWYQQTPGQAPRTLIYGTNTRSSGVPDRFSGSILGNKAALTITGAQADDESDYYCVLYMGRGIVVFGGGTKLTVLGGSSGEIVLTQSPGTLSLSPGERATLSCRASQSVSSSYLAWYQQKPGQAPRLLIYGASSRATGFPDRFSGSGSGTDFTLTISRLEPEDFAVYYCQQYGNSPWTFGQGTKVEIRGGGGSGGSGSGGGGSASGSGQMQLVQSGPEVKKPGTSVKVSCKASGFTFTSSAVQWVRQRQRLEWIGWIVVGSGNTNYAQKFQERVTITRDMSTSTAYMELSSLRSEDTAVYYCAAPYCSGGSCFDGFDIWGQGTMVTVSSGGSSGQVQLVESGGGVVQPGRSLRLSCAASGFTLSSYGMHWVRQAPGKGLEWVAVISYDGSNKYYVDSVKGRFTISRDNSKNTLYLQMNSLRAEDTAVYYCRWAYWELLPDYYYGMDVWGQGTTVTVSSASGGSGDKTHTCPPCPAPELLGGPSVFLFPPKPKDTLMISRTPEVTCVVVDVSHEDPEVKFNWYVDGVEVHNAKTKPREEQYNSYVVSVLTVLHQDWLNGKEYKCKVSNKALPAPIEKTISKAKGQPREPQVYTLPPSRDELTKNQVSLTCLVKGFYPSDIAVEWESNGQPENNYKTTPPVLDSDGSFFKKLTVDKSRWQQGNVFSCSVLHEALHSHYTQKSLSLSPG
Sequence of MX 490 (A23-58H/B1-182L × A19-46) (bispecific antibody) (chain): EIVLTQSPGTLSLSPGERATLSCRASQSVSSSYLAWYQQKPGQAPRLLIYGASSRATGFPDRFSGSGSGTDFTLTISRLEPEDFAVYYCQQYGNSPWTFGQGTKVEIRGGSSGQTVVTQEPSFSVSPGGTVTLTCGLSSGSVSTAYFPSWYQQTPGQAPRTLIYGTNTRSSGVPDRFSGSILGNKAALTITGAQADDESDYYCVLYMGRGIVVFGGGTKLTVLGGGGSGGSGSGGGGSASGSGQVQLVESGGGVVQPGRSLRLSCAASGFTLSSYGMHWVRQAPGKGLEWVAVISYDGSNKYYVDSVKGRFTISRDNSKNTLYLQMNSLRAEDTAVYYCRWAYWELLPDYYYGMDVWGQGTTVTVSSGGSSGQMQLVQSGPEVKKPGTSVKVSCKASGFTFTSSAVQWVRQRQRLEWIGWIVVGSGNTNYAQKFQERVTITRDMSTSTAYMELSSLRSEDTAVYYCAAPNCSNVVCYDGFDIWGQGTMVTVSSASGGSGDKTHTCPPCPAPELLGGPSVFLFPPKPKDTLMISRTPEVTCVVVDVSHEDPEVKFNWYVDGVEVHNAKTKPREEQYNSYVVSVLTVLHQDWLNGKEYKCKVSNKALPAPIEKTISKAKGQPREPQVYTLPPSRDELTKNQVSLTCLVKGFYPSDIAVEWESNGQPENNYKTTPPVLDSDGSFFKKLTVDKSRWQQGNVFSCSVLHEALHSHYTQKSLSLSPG

Substance	IC50, pseudovirus neutralization [1] [nM]	IC80, pseudovirus neutralization [1] [nM]	IC50, pseudovirus neutralization [2] [nM]	IC80, pseudovirus neutralization [2] [nM]	IC50, pseudovirus neutralization [3] [nM]	IC80, pseudovirus neutralization [3] [nM]	IC50, pseudovirus neutralization [4] [nM]	IC80, pseudovirus neutralization [4] [nM]	IC50, pseudovirus neutralization [5] [nM]	IC80, pseudovirus neutralization [5] [nM]	IC50, pseudovirus neutralization [6] [nM]	IC80, pseudovirus neutralization [6] [nM]	IC50, pseudovirus neutralization [7] [nM]	IC80, pseudovirus neutralization [7] [nM]	IC50, pseudovirus neutralization [8] [nM]	IC80, pseudovirus neutralization [8] [nM]	IC50, pseudovirus neutralization [9] [nM]	IC80, pseudovirus neutralization [9] [nM]
A23-58 mAb (antibody)	0.0287	0.0656	0.0329	0.104	0.0133	0.0358	0.853	4.24	1.68	5.69	0.0097	0.0437	0.647	4.96	0.123	0.339	0.124	0.26
A23-58H/B1-182L mAb (antibody)	0.0207	0.0348	0.0174	0.0376	0.0104	0.0205	0.364	1.39	0.544	2.48	0.0116	0.0237	0.83	3.27	0.0305	0.0966	0.0402	0.108
MX179 (A19-46 × B1-182) (bispecific antibody)							0.0068	0.0193	0.0137	0.0389			0.167	0.929				
MX180 (B1-182 × A19-46) (bispecific antibody)							0.0187	0.0652	0.041	0.103			0.584	2.82				
MX466 (A23-58H/B1-182L Cl-CH1 Tetravalent) (antibody)							0.57	8.23	2.47	44.2			0.586	18				
MX467 (A23-58H/B1-182L × A19-61 CL-CH1) (bispecific antibody)							18.5	69.4	0.0373	0.0738			0.0181	0.127				
MX468 (A19-61 × A23-58H/B1-182L CL-CH1) (bispecific antibody)							1.33	4.06	0.0289	0.0617			0.0224	0.0698				
MX491 (A23-58H/B1-182L × A19-46 CL-CH1) (bispecific antibody)							0.0316	0.0928	0.0489	0.114			1.44	7.81				
MX492 (A19-46 × A23-58H/B1-182L) (bispecific antibody)							0.0058	0.0369	0.0201	0.0451			0.107	0.93				
MX493 (A19-46 × A23-58H/B1-182L CL-CH1) (bispecific antibody)							0.0158	0.0387	0.02	0.0464			0.0331	0.0858				
MX 490 (A23-58H/B1-182L × A19-46) (bispecific antibody)							0.22	0.484	0.392	0.896			> 6.7	> 6.7				
